Results on six molecules are retold here after patent US20240263208A1, “CYTOCHROME P450 ENZYME” (HYPHA DISCOVERY LTD., priority 2021, published 2024).

What all share (assay type): biochemical
The nature of data set [1]: Oxidase activity testing against efavirenz. The conditions noted are these: for Average % conversion: substrate Efavirenz, Batch 2. As for the experimental part: (§1) Lyophilised material of recombinant P450, ferredoxin and ferredoxin reductase proteins was made as described in Example 4 and reconstituted in high purity water to the original volume. Biocatalysis was performed with shaking incubation at 27° C. in the following conditions: 100 mM potassium phosphate pH 8.0, 5 mM MgCl2 (both present in the reconstituted enzyme preparation) and 0.1 mg/ml substrate compound such as ambroxide (Sigma-Aldrich, UK), carbamazepine (Sigma-Aldrich, UK), diclofenac (Sigma-Aldrich, UK), tivantinib (MedChemtronica, Sweden), clarithromycin (Tokyo Chemical Industry, Japan), sclareol (Sigma-Aldrich, UK), celecoxib (LC Laboratories, USA), buparvaquone (Sigma-Aldrich, UK), BIRB796 (MedChemExpress, USA), vanoxerine (CiVentiChem, USA), valsartan (Tokyo Chemical Industry, Japan), ruxolitinib (LC Laboratories, USA), perindopril (Selleckchem, USA), solifenacin (Key Organics, UK), 7-ethoxycoumarin (Tokyo Chemical Industry, Japan), tofacitinib (LC Laboratories, USA), ebastine (Key Organics, UK), efavirenz (Key Organics, UK), propanalol (Sigma-Aldrich, UK) and tolbutamide (Key Organics, UK).
(§2) Concentrations of P450, ferredoxin and ferredoxin reductase were as extracted (Example 4). Reactions were initiated by addition of 10× stock of cofactor mixture (50 mM G6P, 10 mM NADP+, 10 UN/ml G6PDH) to provide a final volume of e.g., 10 μl to 90 μl for 100 μl total reaction volumes. After 16-20 hours, reactions were extracted with an equal volume of acetonitrile, centrifuged to remove precipitated proteins and conversion assessed by UPLC-MS analysis.
(§3) UPLC Data were Obtained as Follows: • Column: Acquity UPLC BEH Shield RP18 1.7 μm 2.1 mm i.d. 50 mm length • Solvents: H2O, B: Acetonitrile, both with 0.1% Formic acid • Flow rate: 1.0 ml/min • Detector: Waters Acquity UPLC PDA (UV-Vis detection) and Waters Acquity UPLC QDA (MS)
(§4) Representative results for the % conversions of various substrates to products by enzymes with mutations at position T109 or L198 and double mutants at T109 and 1129/L198 are shown in Table 4 below.

Data set [2] is described as follows: Oxidase activity testing against tofacitinib. The settings on record: substrate Tofacitinib; Batch 2. As for the experimental part:
as §1, §2, §3, §4

Data set [3] is described as follows: Oxidase activity testing against tolbutamide. The settings on record: for Average % conversion: substrate Tolbutamide, Batch 2. The method, then:
as §1, §2, §3, §4

Data set [4] is described as follows: Oxidase activity testing against 7-ethoxycoumarin. The conditions noted are these: for Average % conversion: substrate 7-ethoxycoumarin, Batch 2. As for the experimental part:
as §1, §2, §3, §4

Data set [5] in a line: Oxidase activity testing against ebastine. The settings on record: for Average % conversion: substrate Ebastine, Batch 2. As for the experimental part:
as §1, §2, §3, §4

Data set [6] can be described thus: Oxidase activity testing against solifenacin. The settings on record: for Average % conversion: substrate Solifenacin, Batch 2. As for the experimental part: as §1, §2, §3, §4
A short description of data set [7]: Oxidase activity testing against clarithromycin. The settings on record: for Average % conversion: substrate Clarithromycin, Batch 2; for new product at 3.12 minutes (3″-O-demethylclarithromycin) from clarithromycin: chromatographic analysis, FIGS. 5 and 6. As for the experimental part:
as §1, §2, §3, §4

Data set [8] can be described thus: Oxidase activity testing against valsartan. The conditions noted are these: for Average % conversion: substrate Valsartan, Batch 2. As for the experimental part: as §1, §2, §3, §4
A short description of data set [9]: Oxidase activity testing against BIRB796. The conditions noted are these: substrate BIRB796; Batch 2. As for the experimental part:
as §1, §2, §3, §4

Data set [10] can be described thus: Oxidase activity testing against sclareol. The conditions noted are these: for Average % conversion: substrate Sclareol, Batch 2, UPLC-MS UV or MS peak areas. As for the experimental part: as §1, §2, §3, §4
Data set [11] is described as follows: Oxidase activity testing against vanoxerine. The conditions noted are these: for Average % conversion: substrate Vanoxerine, Batch 2. As for the experimental part: as §1, §2, §3, §4
Data set [12] in a line: Oxidase activity testing against celecoxib. The conditions noted are these: substrate Celecoxib; Batch 2. As for the experimental part: as §1, §2, §3, §4
Data set [13] can be described thus: Oxidase activity testing against perindopril. The settings on record: for Average % conversion: substrate Perindopril, Batch 2. As for the experimental part: as §1, §2, §3, §4
Data set [14] is described as follows: Oxidase activity testing against propanalol. The settings on record: for Average % conversion: substrate Propanalol, Batch 2. The method, then: as §1, §2, §3, §4
Data set [15] can be described thus: Oxidase activity testing against ruxolitinib. The conditions noted are these: substrate Ruxolitinib; Batch 2. The method, then:
as §1, §2, §3, §4

Data set [16] in a line: Oxidase activity testing against buparvaquone. The conditions noted are these: for Average % conversion: substrate Buparvaquone, Batch 2. The method, then:
as §1, §2, §3, §4

The nature of data set [17]: Oxidase activity testing, lyophilised recombinant P450/ferredoxin SeuF08/ferredoxin reductase SCF15A against ambroxide. The settings on record: for +16 Da (1.50 min) 253 m/z / +16 Da (1.60 min) 253 m/z / +16 Da (2.04 min) 253 m/z: oxidised ambroxide product; for +16 Da (1.50 min) 253 m/z / +16 Da (1.60 min) 253 m/z / +16 Da (2.04 min) 253 m/z / Ambroxide (2.22 min) 237 m/z: relative MS peak area; for Ambroxide (2.22 min) 237 m/z: remaining substrate, 0.1 mg/ml ambroxide, 27° C., 16-20 hours; for Average % conversion: substrate ambroxide, relative MS peak areas. The method, then: as §1, §2, §3
To confirm the identities of reaction products where known, their chromatographic retention time, mass and ultraviolet spectra were compared with those of authentic metabolite standards.
Representative results for the % conversions of ambroxide to oxidised (+16 Da) products for single point mutants at position T109 are shown in Table 2 below.

Substitutions are numbered along the chain they refer to. In names and notes the source's numbering stands.

B1: M30: P450SeuC10 with L198F and T109F double mutations, SEQ ID NO: 126 (protein)
chain: MKIGTTHLTRLRGLSMTELTDITGPAAQAETVAFPQDRTCPYHPPTGYDPLRDGRPLSRVTLYDGREVWLVTAQATARALLADPRLSTDRRRDGFPVPTPRFAAGRDRFLALLGLDDPEHHRQRRLLIPSFTLKRATAQRPWIQRIVDELLDAMIARGPVADLVSAFALPVPSMVICELLGVPYADHEFFEEQSRRLFRGPTGADTTDARDRLEAYLGDLIDAKAKEAEPGDGILDDLVHNRLRAGELDRSVLVSLAVILLVAGHETTANMISLGTYTLLQHPERLAELRADPSLLPAVVEELLRMLSIAEGLQRLALEDIEIDGITIRAGEGVLFSTSVINRDTAVYEDPDDLDFHRADRHHVAFGFGIHQCLGQNLARAELEIALGSLFTRLPGLRLAAPAEEIPFKPGDTVQGMLELPVTW
modifications: SeuC10M30
In the case of B1, the Average % conversion is on record as 0% in data set [1]; 33.3% in [2]; 35.7% in [3]; 38% in data set [4]; 9.7% in data set [5]; 3% in data set [6]. Also, the Average % conversion in data set [7] is on record as 0.9%; in data set [8], 17.1%; in data set [9], 38.5%; in data set [10], 31%; in data set [11], 79.1%; in data set [12], 21.6%. Also, the Average % conversion in [13] worked out at 61.4%; in data set [14], 0%; in data set [15], 99.1%. Besides, the “conversion of perindopril compared to wild-type (in words)” value in data set [13] was “significantly increased conversion”.

B2: M32: P450SeuC10 with T109F and I259L double mutations, SEQ ID NO: 130 (protein)
chain: B1 chain with F198L, I259L
modifications: SeuC10M32
B2: the “conversion of efavirenz, not converted by wild-type (in words)” value in data set [1] was “achieved conversion”. Further, the Average % conversion in data set [1] is reported as 1.2%; in [16], 31.5%; in data set [2], 40.8%; in data set [3] it was 56.1%; in data set [4] it was 20.2%; in data set [5], 10.4%. The Average % conversion in [6] was determined as 25.9%; in data set [7], 23.3%; in data set [8], 66.8%; in data set [9] it was 90.6%; in data set [10] it was 84.5%; in [11], 88.8%. Moreover, the Average % conversion in [12] was 35.6%; in [13] it was 45.6%; in data set [14], 1.6%; in data set [15], 99.2%. Besides, in [7], the “conversion of clarithromycin, not converted by wild-type (in words)” value is “achieved conversion”. For the same molecule, the “new product at 3.12 minutes (3″-O-demethylclarithromycin) from clarithromycin” value in data set [7] is reported as “production of a new product”. Also, in data set [8], the “conversion of valsartan compared to wild-type (in words)” value is on record as “significantly increased conversion”. Moreover, in [10], the “conversion of sclareol compared to wild-type (in words)” value is “significantly increased conversion”. Further, the “product at 1.42 minutes from sclareol” value in data set [10] (FIG. 7) is listed as “increased production”. Moreover, the “product at 1.55 minutes from sclareol” value in [10] (FIG. 7) is on record as “generated a new product”. Further, the “conversion of vanoxerine compared to wild-type (in words)” value in [11] is “significantly increased conversion”. In data set [14], the “conversion of propanalol, not converted by wild-type (in words)” value is “achieved conversion”.

B3: SeuC10M26: P450SeuC10 with T109I mutation, SEQ ID NO: 56 (protein)
chain: B1 chain with F109I, F198L
modifications: SeuC10M26
Turning to B3, in data set [17], the “+16 Da (1.50 min) 253 m/z” value amounted to 58.3%, the “+16 Da (1.60 min) 253 m/z” value is on record as 0.0%, the “+16 Da (2.04 min) 253 m/z” value stood at 0.0% and the “Ambroxide (2.22 min) 237 m/z” value was found to be 41.7%. For the same molecule, the Average % conversion in [17] is listed as 58.3%.

B4: SeuC10M27: P450SeuC10 with T109V mutation, SEQ ID NO: 58 (protein)
chain: B1 chain with F109V, F198L
modifications: SeuC10M27
As to B4, in data set [17], the “+16 Da (1.50 min) 253 m/z” value is 58.6%, the “+16 Da (1.60 min) 253 m/z” value came out at 0.9%, the “+16 Da (2.04 min) 253 m/z” value is 2.3% and the “Ambroxide (2.22 min) 237 m/z” value came out at 38.2%. Moreover, the Average % conversion in data set [17] came out at 61.7%.

B5: M53: P450SeuC10 with T109P mutation, SEQ ID NO: 124 (protein)
chain: B1 chain with F109P, F198L
modifications: SeuC10M53
Regarding B5, the Average % conversion in [1] stood at 1.8%; in [16], 54.7%; in data set [2], 67.5%; in data set [3], 77.6%; in data set [4], 67.2%; in [5], 17.4%. Besides, the Average % conversion in [6] came to 33.6%; in [8], 14.3%; in [9], 36.3%; in [10], 52.7%; in data set [11], 44.5%; in data set [12] it was 39.1%. Also, the Average % conversion was 46.5% in data set [13] and 98.6% in data set [15]. Moreover, in [16], the “conversion of buparvaquone compared to wild-type (in words)” value was “significantly increased conversion”. The “product at 1.97 minutes from buparvaquone (hydroxylation of a t-butyl methyl group)” value in [16] (FIG. 8) is listed as “increased production”. Moreover, the “conversion of tolbutamide compared to wild-type (in words)” value in [3] is on record as “significantly increased conversion”. The “conversion of 7-ethoxycoumarin compared to wild-type (in words)” value in data set [4] is “significantly increased conversion”. Further, in [5] (FIG. 9), the “product at 1.38 minutes from ebastine” value is reported as “increased production”. In addition, the “conversion of solifenacin compared to wild-type (in words)” value in [6] is reported as “significantly increased conversion”.

B6: M15: P450SeuC10 with L198T mutation, SEQ ID NO: 34 (protein)
chain: B1 chain with F109T, F198T
modifications: SeuC10M15
For the molecule B6, the Average % conversion in data set [1] stood at 4.3%; in data set [16], 0%; in data set [2], 32.3%; in [3] it was 28.3%; in data set [4], 14.7%; in data set [5], 0.5%. Also, the Average % conversion in [6] was determined as 6%; in data set [7], 0%; in data set [8], 20.9%; in data set [9], 34.4%; in data set [10] it was 61%; in [11], 41%. For the same molecule, the Average % conversion in data set [12] is given as 7.2%; in [13] it was 35.4%; in data set [14] it was 0%; in data set [15], 100%. Besides, the “new product at 3.12 minutes (3″-O-demethylclarithromycin) from clarithromycin” value in data set [7] is on record as “not observed”.
